Experiment [1] deals with recombinant ScpA, residues 31-1032 (active Streptococcal C5a peptidase) (Streptococcus pyogenes) (UniProt P15926).
Experiment [2] addresses rhC5a_(core), N-terminal cleavage product (PN) of rhC5a, residues 1-67 (human). In words: SPR; His-tagged C5a peptide immobilised on NTA sensor chip (30-40 RU), ScpA_(S512A) flowed over; 25 °C; 10 mM Hepes-KOH pH 7.5, 150 mM NaCl, 0.005% Tween 20, 50 μM EDTA; 1:1 Langmuir model with drifting baseline. Background: Surface plasmon resonance follows binding to a sensor surface in real time, without labels.

In experiment [3] the target is rhC5a_(R46A) (human). The experiment is described as above.
Experiment [4] addresses rhC5a_(K49A) (human). Described as above.
The target in experiment [5] is rhC5a_(K4A,K5A) (human). The description is as above.
The target in experiment [6] is rhC5a_(K12A,K14A) (human). The description is as above.
In experiment [7] the target is recombinant human C5a des Arg (rhC5adR), N-ter hexa-histidine tagged (human). The experiment is described as above.
The target of experiment [8] is rhC5a_(R40A) (human). The experiment is described as above.
Experiment [9] deals with rhC5a_(R37A) (human). Described as above.
Experiment [10] deals with T1, ScpA_(S512A), active site serine to alanine mutant of recombinant Streptococcal C5a peptidase ScpA, residues … (Streptococcus pyogenes, UniProt P15926 31-1032, S512A).
T1 construct: mimics the form released from the cell surface by SpeB; catalytic residues D130, H193, S512; also called S512A active site mutant of ScpA; source: recombinant, from plasmid pGEX ScpA_((31-1032)) mutated with QuickChange II; purified
T1 sequence: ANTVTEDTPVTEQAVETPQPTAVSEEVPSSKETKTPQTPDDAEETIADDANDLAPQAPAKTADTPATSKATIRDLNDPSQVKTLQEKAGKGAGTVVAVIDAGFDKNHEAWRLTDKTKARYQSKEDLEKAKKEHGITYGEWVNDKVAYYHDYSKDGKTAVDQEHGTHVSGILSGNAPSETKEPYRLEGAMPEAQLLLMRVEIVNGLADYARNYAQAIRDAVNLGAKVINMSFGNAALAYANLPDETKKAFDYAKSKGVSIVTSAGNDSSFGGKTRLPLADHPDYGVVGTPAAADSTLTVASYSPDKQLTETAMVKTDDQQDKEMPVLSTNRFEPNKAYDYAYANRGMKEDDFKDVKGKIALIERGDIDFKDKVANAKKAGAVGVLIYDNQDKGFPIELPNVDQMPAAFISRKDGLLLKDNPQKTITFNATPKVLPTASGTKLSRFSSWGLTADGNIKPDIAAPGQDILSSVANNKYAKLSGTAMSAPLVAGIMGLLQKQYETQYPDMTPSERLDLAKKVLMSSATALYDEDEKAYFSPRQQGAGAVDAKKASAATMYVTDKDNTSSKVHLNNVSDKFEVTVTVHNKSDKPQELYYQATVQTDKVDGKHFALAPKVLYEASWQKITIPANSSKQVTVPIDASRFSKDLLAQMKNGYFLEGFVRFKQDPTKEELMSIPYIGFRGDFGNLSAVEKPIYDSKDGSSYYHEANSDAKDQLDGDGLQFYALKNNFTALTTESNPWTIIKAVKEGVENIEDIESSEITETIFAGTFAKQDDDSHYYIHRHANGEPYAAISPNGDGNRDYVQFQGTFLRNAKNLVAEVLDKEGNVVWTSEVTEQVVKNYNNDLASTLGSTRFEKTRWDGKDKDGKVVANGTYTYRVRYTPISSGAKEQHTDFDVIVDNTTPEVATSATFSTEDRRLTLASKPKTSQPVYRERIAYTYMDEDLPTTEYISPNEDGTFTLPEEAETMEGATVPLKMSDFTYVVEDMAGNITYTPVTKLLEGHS
As to the kind of experiment: SPR; His-tagged rhC5a immobilised on NTA sensor chip, ScpA_(S512A) flowed over; 25 °C; Hepes buffer with 350 mM NaCl; 1:1 Langmuir model. Particulars: both partners purified.

In experiment [11] the target is T1, ScpA_(S512A), active site serine to …. In words: SPR; His-tagged rhC5a immobilised on NTA sensor chip, ScpA_(S512A) flowed over; 25 °C; Hepes buffer with 750 mM NaCl; 1:1 Langmuir model. Particulars: both partners purified.
For experiment [12] the target is unchanged. As to the kind of experiment: SPR; His-tagged rhC5a immobilised on NTA sensor chip, ScpA_(S512A) flowed over; 25 °C; Hepes buffer with 950 mM NaCl; 1:1 Langmuir model. The following applies: both partners purified.
Experiment [13] shares this target. In words: ITC; ScpA_(S512A) (18 μM) in the cell titrated with 170 μM rhC5a; 25 °C; 50 mM Hepes-KOH pH 7.5, 150 mM NaCl; one set of sites model; KD^ITC derived from KA. Particulars: both partners purified.
For experiment [14] the target is unchanged. As to the kind of experiment: SPR; His-tagged C5a peptide immobilised on NTA sensor chip (30-40 RU), ScpA_(S512A) flowed over; 25 °C; 10 mM Hepes-KOH pH 7.5, 150 mM NaCl, 0.005% Tween 20, 50 μM EDTA; 1:1 Langmuir model with drifting baseline. The following applies: both partners purified.
Experiment [15] has the same target. In words: SPR; His-tagged rhC5a immobilised on NTA sensor chip, ScpA_(S512A) flowed over; 25 °C; Hepes buffer with 550 mM NaCl; 1:1 Langmuir model. The following applies: both partners purified.
Experiment [16] has the same target. In words: SPR; competition in solution: 40 RU HT-rhC5a_(core) immobilised on NTA chip; ScpA_(S512A) (700 nM) pre-incubated with rhC5a-HT (0-2000 nM) 1 hr on ice in SPR running buffer, then injected; Req fitted by the method of Morelock et al. to give KD^Sol. Particulars: both partners purified.

By Kd is commonly meant a measure of binding affinity in units of concentration. As a reminder, the koff is the rate constant with which the complex falls apart. For orientation: kon means the second-order rate constant of association.

Consider “doubly BODIPY labelled His-tagged rhC5aC75 (rhC5aC75-BODIPY) (natural protein)”, for which, in experiment [1], the Km of cleavage of rhC5aC75-BODIPY (16-500 nM) by 180 pM ScpA, fluorescence progress curves, 25 °C, PBS with 0.1% Tween 20 was 185 nM.

B1: ScpA_(S512A), active site serine to alanine mutant of recombinant Streptococcal C5a peptidase ScpA, residues 31-1032 (enzyme)
chain: ANTVTEDTPVTEQAVETPQPTAVSEEVPSSKETKTPQTPDDAEETIADDANDLAPQAPAKTADTPATSKATIRDLNDPSQVKTLQEKAGKGAGTVVAVIDAGFDKNHEAWRLTDKTKARYQSKEDLEKAKKEHGITYGEWVNDKVAYYHDYSKDGKTAVDQEHGTHVSGILSGNAPSETKEPYRLEGAMPEAQLLLMRVEIVNGLADYARNYAQAIRDAVNLGAKVINMSFGNAALAYANLPDETKKAFDYAKSKGVSIVTSAGNDSSFGGKTRLPLADHPDYGVVGTPAAADSTLTVASYSPDKQLTETAMVKTDDQQDKEMPVLSTNRFEPNKAYDYAYANRGMKEDDFKDVKGKIALIERGDIDFKDKVANAKKAGAVGVLIYDNQDKGFPIELPNVDQMPAAFISRKDGLLLKDNPQKTITFNATPKVLPTASGTKLSRFSSWGLTADGNIKPDIAAPGQDILSSVANNKYAKLSGTAMSAPLVAGIMGLLQKQYETQYPDMTPSERLDLAKKVLMSSATALYDEDEKAYFSPRQQGAGAVDAKKASAATMYVTDKDNTSSKVHLNNVSDKFEVTVTVHNKSDKPQELYYQATVQTDKVDGKHFALAPKVLYEASWQKITIPANSSKQVTVPIDASRFSKDLLAQMKNGYFLEGFVRFKQDPTKEELMSIPYIGFRGDFGNLSAVEKPIYDSKDGSSYYHEANSDAKDQLDGDGLQFYALKNNFTALTTESNPWTIIKAVKEGVENIEDIESSEITETIFAGTFAKQDDDSHYYIHRHANGEPYAAISPNGDGNRDYVQFQGTFLRNAKNLVAEVLDKEGNVVWTSEVTEQVVKNYNNDLASTLGSTRFEKTRWDGKDKDGKVVANGTYTYRVRYTPISSGAKEQHTDFDVIVDNTTPEVATSATFSTEDRRLTLASKPKTSQPVYRERIAYTYMDEDLPTTEYISPNEDGTFTLPEEAETMEGATVPLKMSDFTYVVEDMAGNITYTPVTKLLEGHS
For the molecule B1, the Kd in [2] is 240 nM; in [3], 162 nM; in experiment [4], 26 nM; in [5], 32.5 nM; in experiment [6], 25.6 nM; in [7], 191 nM. The figures for the Kd in experiment [8] and in [9] were 234 nM and 217 nM, respectively. In addition, the koff in experiment [2] is 0.0085 s⁻¹; in [3], 0.0178 s⁻¹; in experiment [4] it was 0.005 s⁻¹; in experiment [5] it was 0.00583 s⁻¹; in [6] it was 0.00405 s⁻¹; in [7], 0.0118 s⁻¹. Further, the results for the koff in experiment [8] and in experiment [9] were 0.0205 s⁻¹ and 0.0176 s⁻¹, respectively. The kon in experiment [2] amounted to 35200 M⁻¹ s⁻¹; in experiment [3] it was 111000 M⁻¹ s⁻¹; in experiment [4], 195000 M⁻¹ s⁻¹; in [5] it was 180000 M⁻¹ s⁻¹; in experiment [6], 158000 M⁻¹ s⁻¹; in [7] it was 61700 M⁻¹ s⁻¹. Moreover, the kon in experiment [8] worked out at 88000 M⁻¹ s⁻¹; in [9], 81200 M⁻¹ s⁻¹.

B2: recombinant human C5a, N-ter hexa-histidine tagged (rhC5a) (natural protein, UniProt P01031 678-751, looked up)
chain: TLQKKIEEIAAKYKHSVVKKCCYDGACVNNDETCEQRAARISLGPRCIKAFTECCVVASQLRANISHKDMQLGR
modifications: β-mercaptoethanol added to C27 in the refolding process
notes: numbers count on: the mature C5a (1-74); His-tagged form immobilised on the NTA chip in SPR; also called full length rhC5a; not shown: His6, N-terminal, kept
Consider B2, for which the Kd worked out at 63.5 nM in experiment [10]; 256 nM in experiment [11]; 466 nM in experiment [12]; 30.8 nM in experiment [13]; 34 nM in [14]; 140 nM in experiment [15]. The koff in experiment [10] is 0.00431 s⁻¹; in [11], 0.00651 s⁻¹; in [12] it was 0.0091 s⁻¹; in [14] it was 0.0044 s⁻¹; in experiment [15], 0.0054 s⁻¹. Besides, the kon was found to be 68500 M⁻¹ s⁻¹ in experiment [10]; 25600 M⁻¹ s⁻¹ in experiment [11]; 19500 M⁻¹ s⁻¹ in experiment [12]; 131000 M⁻¹ s⁻¹ in experiment [14]; 39200 M⁻¹ s⁻¹ in [15]. Moreover, in experiment [13], the dH is -9.4 kcal/mol.

B3: His-tagless form of rhC5a (rhC5a-HT) (natural protein, human, UniProt P01031 678-751, looked up)
chain: TLQKKIEEIAAKYKHSVVKKCCYDGACVNNDETCEQRAARISLGPRCIKAFTECCVVASQLRANISHKDMQLGR
modifications: β-mercaptoethanol added to C27 in the refolding process
notes: numbers count on: the mature C5a (1-74); also called rhC5a-HT(sol); tag-less form rhC5a; source: recombinant rhC5a (pProExHTb) treated with TEV protease (Sigma Merck) to remove the His tag; not shown: His6, N-terminal, cleaved
With B3, the Kd in [16] stood at 11.1 nM.

These data come from PMC8052502, “Enzyme kinetic and binding studies identify determinants of specificity for the immunomodulatory enzyme ScpA, a C5a inactivating bacterial protease” (Computational and Structural Biotechnology Journal, 2012).
